Biological target: CdiI^YPIII immunity protein from Yersinia pseudotuberculosis YPIII, His6-tagged (Yersinia pseudotuberculosis YPIII)
Experiment: BLI

With “CdiA-CT^YPIII, C-terminal toxin domain of CdiA from Yersinia pseudotuberculosis YPIII (domain or fragment)” the Kd was 16 nM.
